These results are taken from US20030203372A1, “Analysis method” (priority 2000, published 2003).

The subject of data set [1] is human macrophages. Kind of data set: Custom gene array, macrophages with no cytokines, IL-10 or LPS + IFN, in normoxia and hypoxia. Type of data set: cell-based. The note with it: for mRNA EXPRESSION (experimental condition) #1: #1 no cytokines/normoxia; for mRNA EXPRESSION (experimental condition) #2: #2 no cytokines/hypoxia; for mRNA EXPRESSION (experimental condition) #3: #3 IL-10/normoxia; for mRNA EXPRESSION (experimental condition) #4: #4 IL-10/hypoxia; for mRNA EXPRESSION (experimental condition) #5: #5 LPS/IFN/normoxia; for mRNA EXPRESSION (experimental condition) #6: #6 LPS/IFN/hypoxia. The method, then:
Macrophages were derived and cultured as described elsewhere in the specification. A total of 6 experimental conditions were analysed, as shown below. Where cells were treated with cytokines or hypoxia (0.1% oxygen), this was for 6 hr. Lipopolysaccharide (LPS) (from E.coli 026:B6; Sigma), gamma Interferon (IFN) and Interleukin-10 (IL-10) were all used at a final concentration of 100 ng/ml. The effect of gamma Interferon and Lipopolysaccharide is to activate macrophages, with a Th1 biased phenotype, as found in many inflammatory conditions. Interleukin-10 is a Th2 cytokine and de-activates macrophages, and suppresses their effector functions.

Data set [2] concerns primary human cell cultures (11 cell types). Briefly: Custom gene array, 11 human cell types in normoxia or hypoxia for 6 hr and 18 hr. In kind it is cell-based. The method in brief: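 Values are each gene's expression relative to its median over all cell types and conditions, after per-array normalisation to control genes and merging of replicate arrays. Cells were 11 human types, mostly unmodified primary cultures, kept in normoxia or exposed to hypoxia for 6 hr or 18 hr.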

The mark [3] stands for this setting: Table 15, referenced to the median value of that gene throughout all 6 conditions.
Setting [4] is: Table 16, referenced to median of the gene over 6 conditions.

B1: p2L23 (nucleic acid, listed as Homo Sapiens)
DNA: GGAGCTGTTTACCCCCACTCTAATAGGGGTTCAATATAAAAAGCCGGCAGAGAGCTGTCCAAGTCAGACGCGCCTCTGCATCTGCGCCAGGCGAACGGGTCCTGCGCCTCCTGCAGTCCCAGCTCTCCACCACCGCCGCGTGCGCCTGCAGACGCTCCGCTCGCTGCCTTCTCTCCTGGCAGGCGCTGCCTTTTCTCCCCGTTAAAGGGCACTTGGGCTGAAGGATCGCTTTGAGATCTGAGGAACCCGCAGCGCTTTGAGGGACCTGAAGCTGTTTTTCTTCGTTTTCCTTTGGGTTCAGTTTGAACGGGAGGTTTTTGATCCCTTTTTTTCAGAATGGATTATTTGCTCATGATTTTCTCTCTGCTGTTTGTGGCTTGCCAAGGAGCTCCAGAAACAGCAGTCTTAGGCGCTGAGCTCAGCGCGGTGGGTGAGAACGGCGGGGAGAAACCCACTCCCAGTCCACCCTGGCGGCTCCGCCGGTCCAAGCGCTGCTCCTGCTCGTCCCTGATGGATAAAGAGTGTGTCTACTTCTGCCACCTGGACATCATTTGGGTCAACACTCCCGAGCACGTTGTTCCGTATGGACTTGGAAGCCCTAGGTCCAAGAGAGCCTTGGAGAATTTACTTCCCACAAAGGCAACAGACCGTGAGAATAGATGCCAATGTGCTAGCCAAAAAGACAAGAAGTGCTGGAATTTTTGCCAAGCAGGAAAAGAACTCAGGGCTGAAGACATTATGGAGAAAGACTGGAATAATCATAAGAAAGGAAAAGACTGTTCCAAGCTTGGGAAAAAGTGTATTTATCAGCAGTTAGTGAGAGGAAGAAAAATCAGAAGAAGTTCAGAGGAACACCTAAGACAAACCAGGTCGGAGACCATGAGAAACAGCGTCAAATCATCTTTTCATGATCCCAAGCTGAAAGGCAAGCCCTCCAGAGAGCGTTATGTGACCCACAACCGAGCACATTGGTGACAGACTTCGGGGCCTGTCTGAAGCCATAGCCTCCACGGAGAGCCCTGTGGCCGACTCTGCACTCTCCACCCTGGCTGGGATCAGAGCAGGAGCATCCTCTGCTGGTTCCTGACTGGCAAAGGACCAGCGTCCTCGTTCAAAACATTCCAAGAAAGGTTAAGGAGTTCCCCCAACCATCTTCACTGGCTTCCATCAGTGGTAACTGCTTTGGTCTCTTCTTTCATCTGGGGATGACAATGGACCTCTCAGCAGAAACACACAGTCACATTCGAATTC
In the case of B1, in data set [1] (setting [3]), the “mRNA EXPRESSION (experimental condition) #1” value was determined as 1.02, the “mRNA EXPRESSION (experimental condition) #2” value was determined as 0.62, the “mRNA EXPRESSION (experimental condition) #3” value was determined as 0.74 and the “mRNA EXPRESSION (experimental condition) #4” value worked out at 0.50. In addition, in data set [1] (setting [3]), the “mRNA EXPRESSION (experimental condition) #5” value stood at 11.4 and the “mRNA EXPRESSION (experimental condition) #6” value is recorded as 10.1.

B2: p1G20 (nucleic acid, listed as Homo Sapiens)
DNA: GAGTAGGAGTGCCTCCTTGTCTGCACTGCTGGTATGGGGTTAGGCCAGGTAGGACATTCCAGAGGGGCTTCTGAAAACCAAGAGTCCCTGGGGAAAGGGAACAGAGTAAGGCAGGCCTTGTTCTCACTGCCCTCTAAGGGAACTTGGTCACTCGGCACTTTTAAGCCTCAGTTTCTCCAGTTCAATAATAAGGACAAGAGCTTTTCCCATGCATTCTCTTTCCCCGGGAAAGTTGACTGAGGTGACCAGTAATAGAATTGAAAAGGGAGAGTGTCTTCAGTGCAATGTGGCATCCTGGATTGGGTCTTGGAACAAAAACAGGACATTAGTGGGAAAATTGGAAATCTGAAAAAAGTCTGAATTTTAGTTAATATACCAATTTCAGTCTCTTGGTTTTGACAGATGTACCATGGTGATGTAAGATGTTGACCTTGGGGTAGGCTGGGTGAAGGGTATACAGGAACTCTTTGTACTATCTCTGCAACTTCTCTGTAAATCTAGTATCATTCCAAAATAAAAGTTTATTTAATTTAAAAAAAAAA
Consider B2, for which the “mRNA EXPRESSION (experimental condition) #1” value in data set [1] (setting [4]) was 1.45. Moreover, the “mRNA EXPRESSION (experimental condition) #2” value in data set [1] (setting [4]) turned out to be 0.73. Moreover, in data set [1] (setting [4]), the “mRNA EXPRESSION (experimental condition) #3” value turned out to be 1.60. The “mRNA EXPRESSION (experimental condition) #4” value in data set [1] (setting [4]) is 1.12. Also, in data set [1] (setting [4]), the “mRNA EXPRESSION (experimental condition) #5” value worked out at 0.57. The “mRNA EXPRESSION (experimental condition) #6” value in data set [1] (setting [4]) was determined as 0.44. Besides, in data set [2] (DOWN, 18 hr cardiomyocyte), the “HIGHEST FOLD CHANGE IN HYPOXIA (hr hypoxia + cell type)” value is given as 4.17 DOWN (18 hr cardiomyocyte) ^ fold. The mRNA expression level is 0.48 in data set [2] (cell type #1, HY (hypoxia) 6 hr); 0.50 in data set [2] (cell type #1, HY (hypoxia) 18 hr); 0.74 in data set [2] (cell type #1, NO (normoxia)); 0.66 in data set [2] (cell type #2, HY (hypoxia) 6 hr); 0.36 in data set [2] (cell type #2, HY (hypoxia) 18 hr); 1.54 in data set [2] (cell type #2, NO (normoxia)). Further, the mRNA expression level in data set [2] (cell type #3, HY (hypoxia) 6 hr) is given as 1.26; in data set [2] (cell type #3, HY (hypoxia) 18 hr), 1.03; in data set [2] (cell type #3, NO (normoxia)), 1.64; in data set [2] (cell type #4, HY (hypoxia) 6 hr) it was 0.84; in data set [2] (cell type #4, HY (hypoxia) 18 hr), 0.84; in data set [2] (cell type #4, NO (normoxia)) it was 0.99. Further, the mRNA expression level worked out at 1.19 in data set [2] (cell type #5, HY (hypoxia) 6 hr); 1.34 in data set [2] (cell type #5, NO (normoxia)); 0.98 in data set [2] (cell type #6, HY (hypoxia) 6 hr); 1.29 in data set [2] (cell type #6, NO (normoxia)).
